# Reference: article PMC7441159, “The metal binding site composition of the cation diffusion facilitator protein MamM cytoplasmic domain impacts its metal responsivity” (Scientific Reports, 2020)
# Positions count from the first letter of the chain named. Names and notes keep the numbering of the source.
# B1: MamM CTD H264E (domain or fragment, Magnetospirillum gryphiswaldense MSR-1, UniProt V6F235 215-318, looked up)
# chain: EAVQNRIVEAAERVPGVRGVIHLRARYVGQDIWADMIIGVDPENTVEQAEEICEAVQAAVCGKIRRIESLHVSAEAREIGDTTKPSFSDQPLSFDEVMLSKVDN
# notes: MamM cytoplasmic C-terminal domain (CTD), Magnetospirillum gryphiswaldense MSR-1, UniProt Q6NE57 residues 215-318; A thrombin site follows the His tag
# B2: MamM CTD E289D (domain or fragment, Magnetospirillum gryphiswaldense MSR-1, UniProt V6F235 215-318, looked up)
# chain: B1 chain with E50H, E75D
# notes: as for B1
# B3: MamM CTD D249H-H285D (domain or fragment, Magnetospirillum gryphiswaldense MSR-1, UniProt V6F235 215-318, looked up)
# chain: B1 chain with D35H, E50H, H71D
# notes: as for B1
# B4: MamM CTD D249E (domain or fragment, Magnetospirillum gryphiswaldense MSR-1, UniProt V6F235 215-318, looked up)
# chain: B1 chain with D35E, E50H
# notes: as for B1
# B5: MamM CTD D249N (domain or fragment, Magnetospirillum gryphiswaldense MSR-1, UniProt V6F235 215-318, looked up)
# chain: B1 chain with D35N, E50H
# notes: as for B1
# B6: MamM CTD D249H (domain or fragment, Magnetospirillum gryphiswaldense MSR-1, UniProt V6F235 215-318, looked up)
# chain: B1 chain with D35H, E50H
# notes: as for B1
# B7: MamM CTD E289H (domain or fragment, Magnetospirillum gryphiswaldense MSR-1, UniProt V6F235 215-318, looked up)
# chain: B1 chain with E50H, E75H
# notes: as for B1
# B8: MamM CTD H285D (domain or fragment, Magnetospirillum gryphiswaldense MSR-1, UniProt V6F235 215-318, looked up)
# chain: B1 chain with E50H, H71D
# notes: as for B1
# B9: MamM CTD H264E-E289H (domain or fragment, Magnetospirillum gryphiswaldense MSR-1, UniProt V6F235 215-318, looked up)
# chain: B1 chain with E75H
# notes: MamM cytoplasmic C-terminal domain (CTD), Magnetospirillum gryphiswaldense MSR-1, UniProt Q6NE57 residues 215-318; A thrombin site follows the His tag; also called E289H-H264E
# Biological target: the molecule itself
# Assay: crystal structure; homodimer seen in the crystal; vapor diffusion at 293 K, protein at 20 mg/mL in 10 mM Tris pH 8.0, 150 mM NaCl, 5 mM β-mercaptoethanol and 3.375 mM metal solution (ZnCl2, CdCl2, MnCl2, NiCl2 or CuSO4)
row,Protein,binding result
1,B1,binds
2,B2,binds
3,B3,binds
4,B4,binds
5,B5,binds
6,B6,binds
7,B7,binds
8,B8,binds
9,B9,binds
